Assay results taken from patent US20240327502A1 (Merck Sharp & Dohme, published 2024).

How the values were obtained:
[1] = target: T1, Processed stabilized hMPV PreF trimer (115BV) (human metapneumovirus, strain B2); experiment: BLI, mAb on anti-human Fc sensor
T1 construct: also called Processed hMPV PreF trimer; processed PreF

[2] = target: T2, Unprocessed hMPV PreF trimer (human metapneumovirus, strain B2); experiment: BLI, mAb on anti-human Fc sensor
T2 construct: also called Unprocessed hMPV WT PreF trimer; unprocessed hMPV PreF trimeric antigen

hMPV PostF trimer = target: T3, hMPV PostF trimer (human metapneumovirus, strain B2); experiment: BLI, mAb on anti-human Fc sensor
T3 construct: also called MPV PostF (dPFv1)

[3] = target: T1, Processed stabilized hMPV PreF trimer …; experiment: BLI, ratio to unprocessed PreF trimer

B1: M2C08 (antibody, V domains shown)
VH: QVQLVQSGAEVKKPGASVIVSCRASGFTFSLYTMHWVRQAPGQGLEWMGWISADNSNTKYSQKYQDRVTITMDTSATTLFMEISSLRSEDTAVYYCTRGPAYYFDSSGFAFDIWGQGTLVTVSS
VL: EIVLTQSPGTLSLSPGERATLSCRASQSVSRTYLGWYQQRPGLAPRLLIYGTSSRATGIPDRFSGSGSGTDFTLTISRLEPEDFATYYCQHFGSSLTFGGGTKVEIK
notes: IgG
[1]
  Octet binding response: 0.157 nm
[2]
  Octet binding response: 0.415 nm
hMPV PostF trimer
  Octet binding response: -0.0185 nm
[3]
  processed/unprocessed PreF trimer binding ratio: 0.38

B2: M2C11 (antibody, V domains shown)
VH: QVQLVQSGAEVRKPGASVKVSCKASGYTFTSHDINWVRQAPGQGLEWMGWMNPNSDTTGYAQKFQGRVTMARDISMSTAYMELSSLTSEDTAVYYCARGRHNYYTNGPTRDGFDIWGQGTMVTVSS
VL: SYELTQPPSVSVSPGQTATITCSGDDLGNQYANWFQQRPGQSPVLVIYQDNKRPSGIPERFSGSSSGNTATLTISGTQPLDEADYYCQAWDSRTYVFGTGTKVTVL
notes: IgG
[1]
  Octet binding response: 0.362 nm
[2]
  Octet binding response: 0.349 nm
hMPV PostF trimer
  Octet binding response: -0.03 nm
[3]
  processed/unprocessed PreF trimer binding ratio: 1.04

B3: M1C7 (antibody, V domains shown)
VH: QVQLVESGGGLVQPGRSLRLSCAASGFTFSSYAMHWVRQAPGKGLEWVAIITYDGSGKYYADSLEGRITISRDDPKSMLYLHMRSLTAEDTAVYYCVKSGSFSSAFWLEDWGQGTLVTVSS
VL: EIVLTQSPATLSLSPGERATLSCRASQSISNFVAWYQQKPGQAPRLLIYDASNGATGTPARFSGSGSGTDFTLTISSLEPEDFAVYYCQQRSTWTFGQGTKVEIKR
notes: IgG; also called MIC7
[1]
  Octet binding response: 0.359 nm
[2]
  Octet binding response: 0.312 nm
hMPV PostF trimer
  Octet binding response: 0.0541 nm
[3]
  processed/unprocessed PreF trimer binding ratio: 1.15

B4: M2C06 (antibody, V domains shown)
VH: QVQLVQSGAEVKKPGSSVKVSCRPSGGTFSNDILSWVRQAPGQRLEWMGRIIPLVNMTNIAQKFQGRLTLVADKSTAIVHLELGSLRAEDTAIYYCVRDLPSAGFPAPFDIWGQGTRVTVSA
VL: EIVLTQSPGSLSLSPGARATVSCRASQSLNSASLVWYQQRVGQAPRLLMFGASNRATGIPDRFSGSGSGTDFTLTISRLEPEDFAVYYCQQYAFSPPTFGQGTKVEIK
notes: IgG
[1]
  Octet binding response: 0.472 nm
[2]
  Octet binding response: 0.408 nm
hMPV PostF trimer
  Octet binding response: 0.436 nm
[3]
  processed/unprocessed PreF trimer binding ratio: 1.16

B5: M2D08 (antibody, V domains shown)
VH: QVQLVESGGGVVQPGRSLRLSCAASGFVFRFSGMHWIRQAPGKGLQWVAHISDDGSQKYYADSVTGRFAISRDNSRNTLFLEMTGLRGDDTAVYYCARGDYGVSYFLAHWGLGELVIVSS
VL: EIVLTQSPATLSLSPGERATLSCRASQNIYNYLAWYQQKPGQAPRLVIYDASNRATGIPARFSGSGSETDFTLTISSLEPEDFAVYYCQQRSDWTFGQGTKLEIK
notes: IgG
[1]
  Octet binding response: 0.182 nm
[2]
  Octet binding response: 0.416 nm
hMPV PostF trimer
  Octet binding response: -0.0414 nm
[3]
  processed/unprocessed PreF trimer binding ratio: 0.44

B6: M2B11 (antibody, V domains shown)
VH: QVQLVQSGTEVKKPGASVKVSCKASGYTFTSHDINWLRQATGQGLEWLGWMNPNSATTGYAQKFQGRVTLTRDISISTAYMELSSLRSDDTAVYYCARNRHYYYADGPTRDAFDIWGQGTVVTVSS
VL: SYELTQTPTVSVSPGQTASITCSGDELGHKYTSWYQQKPGQSPVLVVYQDTKRPSGIPERFSGSNSGNTATLTISGTQVMDEADYYCQAWDSGTVLLGGGTKLTVL
notes: IgG
[1]
  Octet binding response: 0.498 nm
[2]
  Octet binding response: 0.38 nm
hMPV PostF trimer
  Octet binding response: -0.0289 nm
[3]
  processed/unprocessed PreF trimer binding ratio: 1.31

B7: M4A10 (antibody, V domains shown)
VH: QVQLVQSGAEVKKPGASVKVSCKASGYTFNGHYLHWVRQAPGQGLEWMGWINPNSGGTDYAQRFQGRVTMTRGTSISTAYMELSRLTSDDTAVYFCARDNFGFWSASSGRHNWLDSWGQGTLVIVSS
VL: NFMLTQPHSVSESPGKTVTISCTRSTGNIASNYVQWYQQRPGSSPTTVIYEDNQRPSAVPDRFSGSIDSSSNSASLTVSGLRTEDEADYYCQSYDSGHHVVFGGGTKLTVL
notes: IgG
[1]
  Octet binding response: 0.23 nm
[2]
  Octet binding response: 0.325 nm
hMPV PostF trimer
  Octet binding response: -0.0388 nm
[3]
  processed/unprocessed PreF trimer binding ratio: 0.71

B8: M7D5 (antibody, V domains shown)
VH: QVQLVQSGAEVKKPGSSVKVSCKASGGTLSNYAISWVRQAPGQGLEWMGGIIPIFGTAMYAHNFQDRVTFTADESTNTVYMAVSRLTSDDTAVYYCAQDRTVTKYAHGLDVWGQGTTVTVSS
VL: DIQMTQSPSSLSASVGDRITITCPASQSLLTYLNWYQQKPGKAPKLLIYSASELPSGVPSRFSGSGSGTEFTLTVTGLQPDDFATYYCQQSHTTPLTFGGGTKVEIKR
notes: IgG
[1]
  Octet binding response: 0.347 nm
[2]
  Octet binding response: 0.296 nm
hMPV PostF trimer
  Octet binding response: 0.0826 nm
[3]
  processed/unprocessed PreF trimer binding ratio: 1.17

B9: M3C04 (antibody, V domains shown)
VH: EVQLVQSGAEVKKPGESLKISCKGSGYNFANYWIGWVRQMPGKGLEWMGIIYPGDSDTRRNPSFQGHVTMSVDQSISTAYLQWSSLKASDTAMYYCARPLAVSAFDIWGQGTMVTVSS
VL: DIQMTQSPSSLSASVGDKLTITCRASQSISNYLNWYQQKSGKAPKLLIYAASSLQSGVPSRFSGSGSGTDFTLTISSLQPEDFATYYCQQSASTPHTFGQGTKVEIV
notes: IgG
[1]
  Octet binding response: 0.31 nm
[2]
  Octet binding response: 0.379 nm
hMPV PostF trimer
  Octet binding response: 0.409 nm
[3]
  processed/unprocessed PreF trimer binding ratio: 0.82

B10: M3C06 (antibody, V domains shown)
VH: QVQLVQSGAEVKKPGSSVKVSCKAYGGTLSNYAISWVRQAPGQGLHWMGRIIPVMNVANYADNFQGRVTITADKSTSTAYMELSSLRSEDAAIYYCATARGLGSLEGGDAFDVWGQGTMLTVSS
VL: DIVMTQSPDSVAVSLGERATISCKSSLSLLYSSNNKNYLVWYQQKPGQPPKLLFYWASTRESGVPDRFSASGSGTDFTLTISSLQAEDVAVYYCQQYYSTPITFGQGTRLEIR
notes: IgG
[1]
  Octet binding response: 0.195 nm
[2]
  Octet binding response: 0.208 nm
hMPV PostF trimer
  Octet binding response: -0.0338 nm
[3]
  processed/unprocessed PreF trimer binding ratio: 0.93

B11: M2C05 (antibody, V domains shown)
VH: EVQLLESGGGLVQPGGSLRLSCAGSGFTFSNYAMSWVRQAPGKGLEWVSDINDRGETTHYADSVKGRFTISRDNSKKKLFLQMNDLRAEDTAIYYCTRAYVVLSVYAPKGFDYWGQGTLVSVSS
VL: DIQMTQSPSILSASEGDRVTITCRASQSVSNWLAWYQQKSGRAPKLLIYKASSLETGVPSRFSGSGSGTEFTLTINNLQPDDFATYYCQHYNGYPYTFGQGTKLEIK
notes: IgG
[1]
  Octet binding response: 0.464 nm
[2]
  Octet binding response: 0.399 nm
[3]
  processed/unprocessed PreF trimer binding ratio: 1.16

B12: M4B03 (antibody, V domains shown)
VH: QVQLVQSGAEVKKPGASVKVSCKASGYIFSNYRMHWVRQAPGQRLEWMGWITAGSGNTRYSEQFQGRVAFTSDTDATTVSMELSGLRFEDTAVYFCAREYNWNDAFPYWGQGTLVIVSS
VL: SYVLTQPPSVSVAPGQTARIPCGGNNIGSKSVHWYQQKSGRAPVLVVYDDSDRPPGIPDRFSGSNSGNTATLTINKIEAGDEADYYCHVSDDNSDHVFFGGGTQLTVL
notes: IgG
[1]
  Octet binding response: 0.108 nm
[2]
  Octet binding response: 0.324 nm
hMPV PostF trimer
  Octet binding response: -0.061 nm
[3]
  processed/unprocessed PreF trimer binding ratio: 0.33
